Source: patent US20200262877A1, “ION CHANNEL-BINDING PEPTIDES AND METHODS OF USE THEREOF” (priority 2017, published 2020)

Columns and labels:
[1] = molecular target: T1, Nav1.7 (Homo sapiens, UniProt Q15858); experiment: cell-based; format: cell-based; details: 100% = no change; for Activity of Nav1.7 with peptide, expressed as a percentage of the reference compound: peptide at 0.2 μM; for Activity of Nav1.7 with peptide (percentage of the reference compound): peptide at 20 μM
T1 construct: host or cells: HEK293 or CHO

[2] = tested on: GABA; experiment: Ion channel panel (IonWorks Barracuda): GABA; format: cell-based; details: 100% = no change, <100% = inhibition
Summary of the method: (§1)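 Peptides were tested in duplicate at final 20 μM and 200 nM, with concentration set by amino acid analysis, in HEPES-buffered saline. They were applied for at least 5 min to HEK293 or CHO cells transfected with each channel. Currents were expressed as % inhibition, 1-(Ipeptide/Icontrol)×100, or % activation, Ipeptide/Icontrol×100, against a channel-matched reference compound.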

[3] = molecular target: T2, α4β2 (Homo sapiens, UniProt P17787+P43681); experiment: Ion channel panel (IonWorks Barracuda): α4β2; format: cell-based; details: 100% = no change, <100% = inhibition
T2 construct: host or cells: HEK293 or CHO
Summary of the method: as §1

[4] = molecular target: hERG (Homo sapiens, UniProt Q12809); experiment: in vitro; details: 100% = no change, <100% = inhibition
Summary of the method: as §1

[5] = molecular target: Nav1.5 (Homo sapiens, UniProt Q14524); experiment: in vitro; details: 100% = no change; for Activity of Nav1.5 with peptide, expressed as a percentage of the reference compound: peptide at 0.2 μM; for Activity of Nav1.5 with peptide (percentage of the reference compound): peptide at 20 μM
Summary of the method: as §1

[6] = molecular target: T3, Kir2.1 (Homo sapiens, UniProt P63252); experiment: Ion channel panel (IonWorks Barracuda): Kir2.1; format: cell-based; details: 100% = no change, <100% = inhibition
T3 construct: host or cells: HEK293 or CHO
Summary of the method: as §1

[7] = molecular target: T4, NR2A (Homo sapiens, UniProt Q12879); experiment: Ion channel panel (IonWorks Barracuda): NR2A; format: cell-based; details: 100% = no change, <100% = inhibition
T4 construct: host or cells: HEK293 or CHO
Summary of the method: as §1

[8] = molecular target: T5, TRPA1 (Homo sapiens, UniProt O75762); experiment: Ion channel panel (IonWorks Barracuda): TRPA1; format: cell-based; details: 100% = no change, <100% = inhibition
T5 construct: host or cells: HEK293 or CHO
Summary of the method: as §1

[9] = molecular target: T6, Cav2.2 (Homo sapiens, UniProt Q00975); experiment: cell-based; details: 100% = no change, <100% = inhibition
T6 construct: host or cells: HEK293 or CHO
Summary of the method: as §1

[10] = molecular target: T7, Kv2.1 (Homo sapiens, UniProt Q14721); experiment: cell-based; details: 100% = no change, <100% = inhibition
T7 construct: host or cells: HEK293 or CHO
Summary of the method: as §1

[11] = molecular target: T8, Cav2.1 (Homo sapiens, UniProt O00555); experiment: cell-based; details: 100% = no change, <100% = inhibition
T8 construct: host or cells: HEK293 or CHO
Summary of the method: as §1

[12] = molecular target: T9, α3β4 (Homo sapiens, UniProt P30926+P32297); experiment: Ion channel panel (IonWorks Barracuda): α3β4; format: cell-based; details: 100% = no change, <100% = inhibition
T9 construct: host or cells: HEK293 or CHO
Summary of the method: as §1

[13] = molecular target: T10, NR2B (Homo sapiens, UniProt Q13224); experiment: Ion channel panel (IonWorks Barracuda): NR2B; format: cell-based; details: 100% = no change, <100% = inhibition
T10 construct: host or cells: HEK293 or CHO
Summary of the method: as §1

[14] = molecular target: T11, Kv1.1 (Homo sapiens, UniProt Q09470); experiment: cell-based; format: cell-based; details: 100% = no change, <100% = inhibition
T11 construct: host or cells: HEK293 or CHO
Summary of the method: as §1

[15] = molecular target: T12, Kv1.3 (Homo sapiens, UniProt P22001); experiment: cell-based; format: cell-based; details: 100% = no change, <100% = inhibition
T12 construct: host or cells: HEK293 or CHO
Summary of the method: as §1

[16] = molecular target: T13, Kv1.2 (Homo sapiens, UniProt P16389); experiment: cell-based; format: cell-based; details: 100% = no change, <100% = inhibition
T13 construct: host or cells: HEK293 or CHO
Summary of the method: as §1

[17] = molecular target: T14, TRPV1 (Homo sapiens, UniProt Q8NER1); experiment: Ion channel panel (IonWorks Barracuda): TRPV1; format: cell-based; details: 100% = no change, <100% = inhibition
T14 construct: host or cells: HEK293 or CHO
Summary of the method: as §1

[18] = molecular target: T15, 5HT3a (Homo sapiens, UniProt P46098); experiment: Ion channel panel (IonWorks Barracuda): 5HT3a; format: cell-based
T15 construct: host or cells: HEK293 or CHO
T15 sequence (P46098 whole entry, looked up): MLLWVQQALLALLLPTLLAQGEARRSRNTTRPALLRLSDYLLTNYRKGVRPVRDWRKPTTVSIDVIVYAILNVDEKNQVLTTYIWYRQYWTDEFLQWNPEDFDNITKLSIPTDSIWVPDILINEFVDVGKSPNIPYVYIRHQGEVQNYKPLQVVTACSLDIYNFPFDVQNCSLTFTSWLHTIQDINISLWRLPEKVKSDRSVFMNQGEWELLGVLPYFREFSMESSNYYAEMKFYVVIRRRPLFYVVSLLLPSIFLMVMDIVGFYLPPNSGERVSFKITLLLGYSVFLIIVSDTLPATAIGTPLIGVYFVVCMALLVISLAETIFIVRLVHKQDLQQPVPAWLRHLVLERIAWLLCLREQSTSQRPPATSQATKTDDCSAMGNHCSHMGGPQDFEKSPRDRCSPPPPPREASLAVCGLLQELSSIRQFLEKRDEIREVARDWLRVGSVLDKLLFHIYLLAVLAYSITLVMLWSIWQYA
Summary of the method: as §1

[19] = first of two Nav1.7 columns (probably TP1)
[20] = second of two Nav1.7 columns (probably TP2)
[21] = first of two Nav1.5 columns (probably TP1)
[22] = second of two Nav1.5 columns (probably TP2)

T1 sequence (Q15858 whole entry): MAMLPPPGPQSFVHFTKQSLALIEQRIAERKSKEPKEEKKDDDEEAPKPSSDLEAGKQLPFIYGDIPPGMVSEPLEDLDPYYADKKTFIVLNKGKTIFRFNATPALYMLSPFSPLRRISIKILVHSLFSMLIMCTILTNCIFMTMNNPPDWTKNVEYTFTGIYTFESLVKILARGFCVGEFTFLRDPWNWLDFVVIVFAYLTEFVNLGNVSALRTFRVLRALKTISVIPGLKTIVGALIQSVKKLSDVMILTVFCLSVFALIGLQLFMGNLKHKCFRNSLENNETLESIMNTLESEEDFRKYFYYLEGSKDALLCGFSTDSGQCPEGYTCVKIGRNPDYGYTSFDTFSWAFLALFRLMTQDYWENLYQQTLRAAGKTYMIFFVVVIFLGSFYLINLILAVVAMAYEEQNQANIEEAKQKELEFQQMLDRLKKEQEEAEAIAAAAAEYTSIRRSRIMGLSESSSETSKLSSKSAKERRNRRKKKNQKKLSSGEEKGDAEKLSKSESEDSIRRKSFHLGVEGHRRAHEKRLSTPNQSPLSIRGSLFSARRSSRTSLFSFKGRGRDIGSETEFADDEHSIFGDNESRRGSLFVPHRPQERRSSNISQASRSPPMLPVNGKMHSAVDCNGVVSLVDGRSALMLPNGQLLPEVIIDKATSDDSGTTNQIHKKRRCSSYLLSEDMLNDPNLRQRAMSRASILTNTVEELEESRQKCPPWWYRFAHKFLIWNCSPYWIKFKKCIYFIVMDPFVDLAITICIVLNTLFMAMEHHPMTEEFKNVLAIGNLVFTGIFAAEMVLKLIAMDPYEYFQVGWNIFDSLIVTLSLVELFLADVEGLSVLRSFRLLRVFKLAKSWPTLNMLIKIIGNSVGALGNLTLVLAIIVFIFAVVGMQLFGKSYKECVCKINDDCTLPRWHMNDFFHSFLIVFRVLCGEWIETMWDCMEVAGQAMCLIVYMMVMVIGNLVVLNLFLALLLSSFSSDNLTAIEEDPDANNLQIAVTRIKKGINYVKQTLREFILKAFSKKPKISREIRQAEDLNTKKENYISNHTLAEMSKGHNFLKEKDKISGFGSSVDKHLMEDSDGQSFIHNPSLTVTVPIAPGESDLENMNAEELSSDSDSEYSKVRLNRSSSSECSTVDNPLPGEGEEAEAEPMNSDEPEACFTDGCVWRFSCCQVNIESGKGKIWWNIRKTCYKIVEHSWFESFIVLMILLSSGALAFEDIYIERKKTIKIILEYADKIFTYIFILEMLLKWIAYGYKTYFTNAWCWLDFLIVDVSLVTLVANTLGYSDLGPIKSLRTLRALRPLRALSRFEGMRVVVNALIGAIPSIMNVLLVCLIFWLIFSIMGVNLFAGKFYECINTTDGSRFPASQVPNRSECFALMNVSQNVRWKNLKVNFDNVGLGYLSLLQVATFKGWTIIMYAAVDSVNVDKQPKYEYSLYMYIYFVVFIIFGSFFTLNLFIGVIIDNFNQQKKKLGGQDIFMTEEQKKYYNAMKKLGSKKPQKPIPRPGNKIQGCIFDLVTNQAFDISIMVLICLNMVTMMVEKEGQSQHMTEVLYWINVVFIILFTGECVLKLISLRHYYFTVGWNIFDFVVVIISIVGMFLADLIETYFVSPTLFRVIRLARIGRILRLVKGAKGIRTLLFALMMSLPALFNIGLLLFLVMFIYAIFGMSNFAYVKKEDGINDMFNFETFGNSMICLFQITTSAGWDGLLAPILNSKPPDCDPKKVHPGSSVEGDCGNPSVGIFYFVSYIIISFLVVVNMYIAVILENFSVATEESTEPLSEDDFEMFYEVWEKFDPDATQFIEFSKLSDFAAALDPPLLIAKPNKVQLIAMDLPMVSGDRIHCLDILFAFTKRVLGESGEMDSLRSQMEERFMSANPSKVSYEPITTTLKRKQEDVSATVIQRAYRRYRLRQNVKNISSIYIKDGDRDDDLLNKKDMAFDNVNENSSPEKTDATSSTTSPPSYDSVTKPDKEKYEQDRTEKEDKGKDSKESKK
Chain of Nav1.5 (Q14524 whole entry): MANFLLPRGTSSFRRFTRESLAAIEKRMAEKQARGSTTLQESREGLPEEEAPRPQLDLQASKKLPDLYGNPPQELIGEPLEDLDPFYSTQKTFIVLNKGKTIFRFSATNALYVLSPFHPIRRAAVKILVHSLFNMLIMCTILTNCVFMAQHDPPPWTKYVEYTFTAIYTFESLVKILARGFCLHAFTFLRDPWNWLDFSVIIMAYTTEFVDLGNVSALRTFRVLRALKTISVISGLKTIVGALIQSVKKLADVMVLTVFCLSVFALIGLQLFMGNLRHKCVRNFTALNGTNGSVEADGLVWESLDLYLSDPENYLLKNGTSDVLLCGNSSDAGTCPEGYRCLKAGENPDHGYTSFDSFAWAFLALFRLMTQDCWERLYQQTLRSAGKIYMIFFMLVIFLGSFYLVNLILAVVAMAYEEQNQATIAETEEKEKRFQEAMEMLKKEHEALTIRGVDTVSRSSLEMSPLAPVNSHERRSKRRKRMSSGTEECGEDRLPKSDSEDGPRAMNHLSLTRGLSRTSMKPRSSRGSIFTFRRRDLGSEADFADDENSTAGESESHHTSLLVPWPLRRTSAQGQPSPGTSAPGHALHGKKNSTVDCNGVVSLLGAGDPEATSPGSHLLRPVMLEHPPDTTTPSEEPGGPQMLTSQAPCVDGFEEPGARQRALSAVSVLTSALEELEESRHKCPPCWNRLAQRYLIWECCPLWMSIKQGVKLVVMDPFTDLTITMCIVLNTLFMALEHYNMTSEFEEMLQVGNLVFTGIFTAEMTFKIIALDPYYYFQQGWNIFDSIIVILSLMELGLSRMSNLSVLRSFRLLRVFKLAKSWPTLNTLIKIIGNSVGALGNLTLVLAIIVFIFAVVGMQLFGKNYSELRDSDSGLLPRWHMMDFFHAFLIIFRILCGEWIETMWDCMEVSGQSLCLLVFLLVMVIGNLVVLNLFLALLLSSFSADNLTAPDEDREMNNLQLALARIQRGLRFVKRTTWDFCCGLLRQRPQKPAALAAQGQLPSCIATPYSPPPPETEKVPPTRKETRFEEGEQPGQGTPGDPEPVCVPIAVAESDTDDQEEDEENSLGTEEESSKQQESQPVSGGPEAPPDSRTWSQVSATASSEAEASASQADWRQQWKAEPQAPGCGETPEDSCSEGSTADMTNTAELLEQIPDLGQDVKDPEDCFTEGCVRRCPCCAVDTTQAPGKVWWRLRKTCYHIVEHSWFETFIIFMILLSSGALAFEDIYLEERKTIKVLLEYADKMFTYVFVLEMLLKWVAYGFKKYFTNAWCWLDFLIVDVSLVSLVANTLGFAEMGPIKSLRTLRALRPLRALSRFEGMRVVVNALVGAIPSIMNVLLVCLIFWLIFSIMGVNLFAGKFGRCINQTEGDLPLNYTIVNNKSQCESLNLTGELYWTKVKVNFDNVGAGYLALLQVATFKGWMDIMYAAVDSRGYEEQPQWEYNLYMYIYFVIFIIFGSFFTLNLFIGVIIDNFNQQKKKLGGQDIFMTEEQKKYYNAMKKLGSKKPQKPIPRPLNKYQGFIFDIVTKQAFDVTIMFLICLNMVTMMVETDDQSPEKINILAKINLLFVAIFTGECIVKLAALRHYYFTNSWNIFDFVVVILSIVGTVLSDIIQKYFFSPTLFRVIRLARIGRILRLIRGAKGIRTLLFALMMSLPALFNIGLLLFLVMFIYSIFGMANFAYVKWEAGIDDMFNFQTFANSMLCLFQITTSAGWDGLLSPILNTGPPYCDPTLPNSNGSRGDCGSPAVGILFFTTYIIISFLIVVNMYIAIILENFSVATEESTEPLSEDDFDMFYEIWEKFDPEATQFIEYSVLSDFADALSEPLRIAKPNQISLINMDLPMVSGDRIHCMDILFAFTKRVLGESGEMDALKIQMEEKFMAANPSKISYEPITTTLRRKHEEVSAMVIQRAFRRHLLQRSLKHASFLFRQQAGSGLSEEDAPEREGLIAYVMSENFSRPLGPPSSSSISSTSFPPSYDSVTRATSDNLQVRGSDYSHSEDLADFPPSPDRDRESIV
T3 sequence (P63252 whole entry): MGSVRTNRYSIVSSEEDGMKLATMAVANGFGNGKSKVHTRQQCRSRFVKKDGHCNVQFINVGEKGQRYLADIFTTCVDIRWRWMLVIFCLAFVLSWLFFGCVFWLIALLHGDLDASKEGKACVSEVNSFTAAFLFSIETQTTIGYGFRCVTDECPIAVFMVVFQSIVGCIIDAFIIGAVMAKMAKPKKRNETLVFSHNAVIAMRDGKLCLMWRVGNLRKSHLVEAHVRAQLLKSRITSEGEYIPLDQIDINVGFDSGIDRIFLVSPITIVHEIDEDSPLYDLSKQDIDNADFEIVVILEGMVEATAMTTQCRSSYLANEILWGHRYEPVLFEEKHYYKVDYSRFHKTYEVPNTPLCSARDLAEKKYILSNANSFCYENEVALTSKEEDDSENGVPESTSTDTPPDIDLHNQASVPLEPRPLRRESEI
T11 sequence (Q09470 whole entry): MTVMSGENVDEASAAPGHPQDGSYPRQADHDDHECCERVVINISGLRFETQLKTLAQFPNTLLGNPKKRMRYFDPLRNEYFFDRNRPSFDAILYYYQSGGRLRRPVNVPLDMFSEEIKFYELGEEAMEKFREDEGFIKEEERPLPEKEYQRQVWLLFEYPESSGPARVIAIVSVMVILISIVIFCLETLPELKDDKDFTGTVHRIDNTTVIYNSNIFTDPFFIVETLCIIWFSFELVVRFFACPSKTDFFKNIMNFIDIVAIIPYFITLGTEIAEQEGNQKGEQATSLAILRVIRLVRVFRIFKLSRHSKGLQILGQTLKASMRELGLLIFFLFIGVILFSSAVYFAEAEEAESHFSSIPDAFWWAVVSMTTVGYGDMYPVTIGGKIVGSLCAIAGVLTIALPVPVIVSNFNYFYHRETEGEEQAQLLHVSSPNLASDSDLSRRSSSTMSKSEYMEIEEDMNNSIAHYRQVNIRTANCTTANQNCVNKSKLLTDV

15 (GSAVCNLKRCQLSCRSLGLLGKCIGDKCECVKHG) [compound 15]
Activity of Nav1.7 with peptide, expressed as a percentage of the reference compound [1, 19]: 91%
Activity of Nav1.7 with peptide, expressed as a percentage of the reference compound [1, 20]: 97%
Activity of Nav1.7 with peptide (percentage of the reference compound) [1, 19]: 75%
Activity of Nav1.7 with peptide (percentage of the reference compound) [1, 20]: 58%
Activity of GABA with peptide, expressed as a percentage of the reference compound ([2]; peptide at 0.2 μM): 122%
Activity of GABA with peptide (percentage of the reference compound) ([2]; peptide at 20 μM): 97%
Activity of a4b2 with peptide, expressed as a percentage of the reference compound ([3]; peptide at 0.2 μM): 71%
Activity of a4b2 with peptide (percentage of the reference compound) ([3]; peptide at 20 μM): 95%
Activity of hERG with peptide, expressed as a percentage of the reference compound ([4]; peptide at 0.2 μM): 79%
Activity of hERG with peptide (percentage of the reference compound) ([4]; peptide at 20 μM): 67%
Activity of Nav1.5 with peptide, expressed as a percentage of the reference compound [5, 21]: 90%
Activity of Nav1.5 with peptide, expressed as a percentage of the reference compound [5, 22]: 91%
Activity of Nav1.5 with peptide (percentage of the reference compound) [5, 21]: 78%
Activity of Nav1.5 with peptide (percentage of the reference compound) [5, 22]: 79%
Activity of Kir2.1 with peptide, expressed as a percentage of the reference compound ([6]; peptide at 0.2 μM): 107%
Activity of Kir2.1 with peptide (percentage of the reference compound) ([6]; peptide at 20 μM): 88%
Activity of NR2A with peptide, expressed as a percentage of the reference compound ([7]; peptide at 0.2 μM): 97%
Activity of NR2A with peptide (percentage of the reference compound) ([7]; peptide at 20 μM): 76%
Activity of TRPA1 with peptide, expressed as a percentage of the reference compound ([8]; peptide at 0.2 μM): 114%
Activity of TRPA1 with peptide (percentage of the reference compound) ([8]; peptide at 20 μM): 76%
Activity of Cav2.2 with peptide, expressed as a percentage of the reference compound ([9]; peptide at 0.2 μM): 105%
Activity of Cav2.2 with peptide (percentage of the reference compound) ([9]; peptide at 20 μM): 106%
Activity of Kv2.1 with peptide, expressed as a percentage of the reference compound ([10]; peptide at 0.2 μM): 91%
Activity of Kv2.1 with peptide (percentage of the reference compound) ([10]; peptide at 20 μM): 88%
Activity of Cav2.1 with peptide, expressed as a percentage of the reference compound ([11]; peptide at 0.2 μM): 106%
Activity of Cav2.1 with peptide (percentage of the reference compound) ([11]; peptide at 20 μM): 86%
Activity of a3b4 with peptide, expressed as a percentage of the reference compound ([12]; peptide at 0.2 μM): 91%
Activity of a3b4 with peptide (percentage of the reference compound) ([12]; peptide at 20 μM): 86%
Activity of NR2B with peptide, expressed as a percentage of the reference compound ([13]; peptide at 0.2 μM): 103%
Activity of NR2B with peptide (percentage of the reference compound) ([13]; peptide at 20 μM): 88%
Activity of Kv1.1 with peptide, expressed as a percentage of the reference compound ([14]; peptide at 0.2 μM): 69%
Activity of Kv1.1 with peptide (percentage of the reference compound) ([14]; peptide at 20 μM): 72%
Activity of Kv1.3 with peptide, expressed as a percentage of the reference compound ([15]; peptide at 0.2 μM): 86%
Activity of Kv1.3 with peptide (percentage of the reference compound) ([15]; peptide at 20 μM): 90%
Activity of Kv1.2 with peptide, expressed as a percentage of the reference compound ([16]; peptide at 0.2 μM): 77%
Activity of Kv1.2 with peptide (percentage of the reference compound) ([16]; peptide at 20 μM): 76%
Activity of TRPV1 with peptide, expressed as a percentage of the reference compound ([17]; peptide at 0.2 μM): 124%
Activity of TRPV1 with peptide (percentage of the reference compound) ([17]; peptide at 20 μM): 99%
Activity of 5HT3a with peptide (percentage of the reference compound) [18]: 74%
Activity of 5HT3a with peptide, expressed as a percentage of the reference compound [18]: 86%
